Assay [1] has as its target full-length human SIRPβ1 D→H on Expi-CHO cells (human, UniProt O00241 30-398). The experiment in a line: flow cytometry, Expi-CHO cells. The procedure: These cells are blocked with donkey IgG and incubated on ice with increasing concentrations of antibodies for 60 minutes, washed and stained with AF647-conjugated donkey F(ab′)₂ anti-human IgG antibodies. Stained cells are washed, fixed, and analyzed by flow cytometry. Median fluorescent intensity is determined and used as a measure of antibody binding.

Assay [2] has as its target T1, full-length human SIRPγ (NP_061026.2) on cells (human, UniProt Q9P1W8 29-387).
T1 construct: on CHO and Expi-CHO cells; endogenous on primary human CD3+ T cells; also called γ WT
Briefly: flow cytometry, primary human CD3+ T cells. The method, then:
Antibody binding to primary human T cells expressing endogenous SIRPγ is evaluated by flow cytometry. Human peripheral blood mononuclear cells (PBMCs) are blocked with donkey IgG and incubated on ice with increasing concentrations of antibody for 60 minutes, washed and stained with AF647-conjugated donkey F(ab′)₂ anti-human IgG secondary reagent. […] Cells are washed, fixed, and analyzed by flow cytometry. Median fluorescent intensity of CD3+ gated population is determined and used as a measure of antibody binding.

The target of assay [3] is T2, human SIRPβL/SIRPβ1v3 extracellular domain + His-tag (NP_001129316.1) (human, UniProt Q5TFQ8 30-371).
T2 construct: also called hSIRPβ1v3; HuSIRPβ1v3
Briefly: SPR, Ab captured, ECD-His analyte. The procedure: (§1) The binding affinity of anti-SIRPα antibodies to the various SIRPα analytes is determined by surface plasmon resonance (SPR) using a ProteOn XPR36 (Bio-Rad). The running buffer for this experiment and all dilutions (except where stated) are done in 1×HBS-EP+. […] The sensorchip is deactivated with 1M ethanolamine HCl for 420 sec at a flowrate of 10 μl/min.
(§2) The analyte is injected over the captured antibody for 300 sec at a flowrate of 30 μl/min. The dissociation is done for 600 sec. Two-fold serial dilutions of each SIRP protein (Extracellular Domain+His-Tag) are injected as analyte with the highest concentrations indicated in table 36 below.

In assay [4] the target is T3, human SIRPγ extracellular domain + His-tag (NP_061026.2) (human, UniProt Q9P1W8 29-360).
T3 construct: also called hSIRPγ; HuSIRPγ
Briefly: SPR, Ab captured, ECD-His analyte. The procedure: as §1, §2

Assay [5] deals with T4, human SIRPβ1 extracellular domain + His-tag (NP_006056.2) (human, UniProt O00241 30-371).
T4 construct: also called hSIRPβ1; HuSIRPβ1
Briefly: SPR, Ab captured, ECD-His analyte. The method, then:
as §1, §2

The target in assay [6] is T5, full-length human SIRPβL (NP_001129316.1) on cells (human, UniProt Q5TFQ8 30-398).
T5 construct: on U937 SIRPα KO cells and Expi-CHO cells; also called βL WT; SIRPβ1v3
Briefly: flow cytometry, U937 SIRPα KO cells. The procedure:
Antibody binding to cells expressing full-length human SIRPβ1 (NP_006056.2) and SIRPβL (NP_001129316.1) is evaluated by flow cytometry. SIRPβ1- or SIRPβL-expressing U937^{SIRPα KO} cells are blocked with donkey IgG and incubated on ice with increasing concentrations of antibodies for 60 minutes, washed and stained with AF647-conjugated donkey F(ab′)₂ anti-human IgG secondary reagent. Cells are washed, fixed, and analyzed by flow cytometry. Median fluorescent intensity is determined and used as a measure of antibody binding.

Assay [7] deals with T6, cynomolgus SIRPβ1v3 extracellular domain + His-tag (XP_005568593) (cynomolgus monkey).
T6 construct: also called Cyno SIRPβ1v3; cynoSIRPβ1v3
T6 chain: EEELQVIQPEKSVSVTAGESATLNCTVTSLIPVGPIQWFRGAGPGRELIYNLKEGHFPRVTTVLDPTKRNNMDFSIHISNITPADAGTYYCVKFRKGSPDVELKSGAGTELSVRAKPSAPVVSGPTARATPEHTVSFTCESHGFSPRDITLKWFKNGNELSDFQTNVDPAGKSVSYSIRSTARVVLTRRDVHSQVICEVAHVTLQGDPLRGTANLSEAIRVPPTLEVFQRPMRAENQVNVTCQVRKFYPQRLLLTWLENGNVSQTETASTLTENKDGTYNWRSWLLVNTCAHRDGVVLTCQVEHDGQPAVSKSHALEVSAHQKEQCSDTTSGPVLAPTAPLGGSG
The experiment in a line: SPR, Ab captured, ECD-His analyte. The procedure:
as §1, §2

Assay [8] concerns the target T7, cynomolgus SIRPα extracellular domain + His-tag (EGM_02252) (cynomolgus monkey).
T7 construct: also called CySIRPα EGM_02252; cynoSIRPα
T7 chain: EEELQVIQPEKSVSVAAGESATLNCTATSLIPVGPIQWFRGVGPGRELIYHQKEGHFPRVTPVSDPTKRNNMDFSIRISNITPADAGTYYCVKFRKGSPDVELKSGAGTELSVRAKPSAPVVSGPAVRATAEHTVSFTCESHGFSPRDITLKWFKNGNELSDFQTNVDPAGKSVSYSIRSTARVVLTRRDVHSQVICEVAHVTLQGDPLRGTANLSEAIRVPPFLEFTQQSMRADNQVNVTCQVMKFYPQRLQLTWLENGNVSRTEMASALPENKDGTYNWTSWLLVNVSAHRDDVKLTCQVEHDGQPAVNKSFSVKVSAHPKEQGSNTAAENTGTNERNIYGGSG
The experiment in a line: SPR, Ab captured, ECD-His analyte. The procedure:
as §1, §2

For assay [9], the target named is T8, cynomolgus SIRPγ extracellular domain + His-tag (XP_005568591) (cynomolgus monkey, UniProt Q9P1W8 29-359 (human entry)).
T8 construct: also called Cyno SIRPγ; cynoSIRPγ
T8 chain: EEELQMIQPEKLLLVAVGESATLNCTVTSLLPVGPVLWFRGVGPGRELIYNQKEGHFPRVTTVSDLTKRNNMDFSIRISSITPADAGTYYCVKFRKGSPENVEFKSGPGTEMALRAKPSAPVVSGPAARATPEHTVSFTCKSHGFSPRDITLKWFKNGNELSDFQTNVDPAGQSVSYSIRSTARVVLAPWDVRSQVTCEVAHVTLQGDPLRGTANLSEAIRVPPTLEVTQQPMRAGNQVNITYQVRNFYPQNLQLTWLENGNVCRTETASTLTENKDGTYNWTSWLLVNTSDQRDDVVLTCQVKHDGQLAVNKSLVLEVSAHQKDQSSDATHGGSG
The experiment in a line: SPR, Ab captured, ECD-His analyte. The method, then: as §1, §2

Assay [10] deals with T9, cynomolgus SIRPα extracellular domain + His-tag (XP_015313155) (cynomolgus monkey).
T9 construct: also called CySIRPα XP_015313155; cynoSIRPα
T9 chain: T7 chain with E19D, A27V, T28S, V42A, H51N, Q52L, F227V, M245T
The experiment in a line: SPR, Ab captured, ECD-His analyte. The method, then: as §1, §2

Assay [11] has as its target T10, mouse SIRPα extracellular domain + His-tag (NP_031573) (mouse, UniProt P97797 32-373).
T10 chain: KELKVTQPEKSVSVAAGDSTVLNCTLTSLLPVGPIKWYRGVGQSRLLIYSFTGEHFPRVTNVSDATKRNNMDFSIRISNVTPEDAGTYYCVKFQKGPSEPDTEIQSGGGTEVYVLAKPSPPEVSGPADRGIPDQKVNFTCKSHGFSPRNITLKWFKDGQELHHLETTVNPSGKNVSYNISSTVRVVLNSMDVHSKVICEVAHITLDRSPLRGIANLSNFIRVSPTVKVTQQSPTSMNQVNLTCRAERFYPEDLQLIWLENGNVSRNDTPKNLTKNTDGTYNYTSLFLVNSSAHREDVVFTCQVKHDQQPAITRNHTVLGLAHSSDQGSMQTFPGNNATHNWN
The experiment in a line: SPR, Ab captured, ECD-His analyte. The procedure: as §1, §2

The target in assay [12] is T11, cynomolgus SIRPα extracellular domain + His-tag (NP_001271679) (cynomolgus monkey).
T11 construct: also called CySIRPα NP_001271679; cynoSIRPα
T11 chain: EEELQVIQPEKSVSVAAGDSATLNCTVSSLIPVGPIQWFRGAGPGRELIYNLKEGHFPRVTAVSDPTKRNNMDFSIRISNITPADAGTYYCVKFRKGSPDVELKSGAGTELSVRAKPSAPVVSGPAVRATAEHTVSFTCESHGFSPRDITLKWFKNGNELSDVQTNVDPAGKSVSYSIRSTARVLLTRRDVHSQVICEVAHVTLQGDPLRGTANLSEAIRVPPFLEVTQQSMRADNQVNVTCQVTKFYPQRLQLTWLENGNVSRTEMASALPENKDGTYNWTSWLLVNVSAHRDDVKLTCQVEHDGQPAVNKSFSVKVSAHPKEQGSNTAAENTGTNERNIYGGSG
Briefly: SPR, Ab captured, ECD-His analyte. The procedure: as §1, §2

Assay [13] has as its target T12, human SIRPαV1 extracellular domain + His-tag (NP_542970.1) (human, UniProt P78324 31-373).
T12 construct: also called hSIRPαV1; HuSIRPαV1
The experiment in a line: SPR, Ab captured, ECD-His analyte. The method, then: as §1, §2

For assay [14], the target named is T13, human SIRPαV2 extracellular domain + His-tag (CAA71403.1) (human, UniProt P78324 31-373).
T13 construct: also called hSIRPαV2; HuSIRPαV2
The experiment in a line: SPR, Ab captured, ECD-His analyte. The procedure:
as §1, §2

Assay [15] deals with T4, human SIRPβ1 extracellular domain + …. Briefly: SPR, Ab captured, ECD-His analyte. The method, then: as §1, §2
This is another data set of the same source.

Consider 4 molecules from patent publication US20230012273A1 (Boehringer Ingelheim, published 2023).

Residue numbers refer to the chain shown, from its start. Like-named read-outs stand apart in the source and are kept apart here.

T4 sequence (O00241 other isoform, or with tags, fused parts or gaps): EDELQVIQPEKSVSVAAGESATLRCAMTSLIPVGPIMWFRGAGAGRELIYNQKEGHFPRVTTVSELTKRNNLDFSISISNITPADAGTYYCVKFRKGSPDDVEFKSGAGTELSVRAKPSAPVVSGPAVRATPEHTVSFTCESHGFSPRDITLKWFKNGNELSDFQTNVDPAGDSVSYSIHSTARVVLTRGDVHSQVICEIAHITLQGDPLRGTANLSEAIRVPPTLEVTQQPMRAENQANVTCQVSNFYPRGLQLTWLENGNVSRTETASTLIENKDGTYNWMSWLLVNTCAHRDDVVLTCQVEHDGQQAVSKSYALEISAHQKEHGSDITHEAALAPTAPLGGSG
Sequence of full-length human SIRPβ1 D→H on Expi-CHO cells (O00241 30-398 D130H): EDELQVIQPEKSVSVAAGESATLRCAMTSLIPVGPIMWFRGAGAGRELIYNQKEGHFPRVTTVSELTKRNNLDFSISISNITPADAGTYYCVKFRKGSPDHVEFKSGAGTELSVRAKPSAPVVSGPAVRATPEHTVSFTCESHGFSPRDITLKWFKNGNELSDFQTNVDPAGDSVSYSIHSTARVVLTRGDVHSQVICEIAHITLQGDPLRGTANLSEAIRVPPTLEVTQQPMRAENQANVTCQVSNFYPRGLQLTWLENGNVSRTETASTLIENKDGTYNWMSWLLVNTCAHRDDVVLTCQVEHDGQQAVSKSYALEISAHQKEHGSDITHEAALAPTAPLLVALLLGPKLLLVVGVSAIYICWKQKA
T13 sequence (P78324 other isoform, or with tags, fused parts or gaps): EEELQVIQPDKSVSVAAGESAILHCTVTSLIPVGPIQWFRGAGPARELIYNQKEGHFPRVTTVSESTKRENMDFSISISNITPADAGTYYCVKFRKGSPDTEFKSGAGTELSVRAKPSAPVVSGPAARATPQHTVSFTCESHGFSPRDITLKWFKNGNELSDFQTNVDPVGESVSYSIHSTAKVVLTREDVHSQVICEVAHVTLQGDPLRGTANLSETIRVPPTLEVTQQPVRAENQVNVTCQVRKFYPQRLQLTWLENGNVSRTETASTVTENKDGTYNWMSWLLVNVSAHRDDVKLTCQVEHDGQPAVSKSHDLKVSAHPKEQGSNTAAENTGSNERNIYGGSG
T5 sequence (Q5TFQ8 30-398): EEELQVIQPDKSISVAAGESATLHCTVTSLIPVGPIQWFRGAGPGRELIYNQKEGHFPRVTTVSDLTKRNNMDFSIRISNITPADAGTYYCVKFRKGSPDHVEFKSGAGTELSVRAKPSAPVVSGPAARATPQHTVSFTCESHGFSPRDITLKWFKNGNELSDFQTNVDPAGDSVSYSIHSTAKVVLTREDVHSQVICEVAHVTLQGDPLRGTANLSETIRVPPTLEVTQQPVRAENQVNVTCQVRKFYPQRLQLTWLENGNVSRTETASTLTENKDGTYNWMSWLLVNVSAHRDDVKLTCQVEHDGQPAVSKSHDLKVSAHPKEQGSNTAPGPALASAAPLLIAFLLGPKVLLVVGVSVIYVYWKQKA
T12 sequence (P78324 other isoform, or with tags, fused parts or gaps): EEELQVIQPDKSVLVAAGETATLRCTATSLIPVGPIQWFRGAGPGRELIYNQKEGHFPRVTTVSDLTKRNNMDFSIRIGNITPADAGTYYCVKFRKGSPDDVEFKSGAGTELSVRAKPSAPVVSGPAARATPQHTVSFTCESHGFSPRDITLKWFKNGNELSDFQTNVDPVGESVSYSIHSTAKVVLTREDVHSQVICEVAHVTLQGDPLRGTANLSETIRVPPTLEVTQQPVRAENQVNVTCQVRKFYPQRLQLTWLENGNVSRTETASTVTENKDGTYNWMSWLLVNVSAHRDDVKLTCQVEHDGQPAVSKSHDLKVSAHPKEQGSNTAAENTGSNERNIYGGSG
T1 sequence (Q9P1W8 29-387): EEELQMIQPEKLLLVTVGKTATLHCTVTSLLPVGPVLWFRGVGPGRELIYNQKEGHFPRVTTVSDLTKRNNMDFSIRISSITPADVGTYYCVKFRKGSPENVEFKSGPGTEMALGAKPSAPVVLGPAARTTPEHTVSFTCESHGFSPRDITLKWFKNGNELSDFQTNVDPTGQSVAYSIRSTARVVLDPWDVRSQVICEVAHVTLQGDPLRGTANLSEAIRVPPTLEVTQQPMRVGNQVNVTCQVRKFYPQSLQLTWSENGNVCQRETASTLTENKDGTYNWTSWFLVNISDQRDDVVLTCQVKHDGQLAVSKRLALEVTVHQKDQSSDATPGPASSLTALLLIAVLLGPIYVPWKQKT
T2 sequence (Q5TFQ8 other isoform, or with tags, fused parts or gaps): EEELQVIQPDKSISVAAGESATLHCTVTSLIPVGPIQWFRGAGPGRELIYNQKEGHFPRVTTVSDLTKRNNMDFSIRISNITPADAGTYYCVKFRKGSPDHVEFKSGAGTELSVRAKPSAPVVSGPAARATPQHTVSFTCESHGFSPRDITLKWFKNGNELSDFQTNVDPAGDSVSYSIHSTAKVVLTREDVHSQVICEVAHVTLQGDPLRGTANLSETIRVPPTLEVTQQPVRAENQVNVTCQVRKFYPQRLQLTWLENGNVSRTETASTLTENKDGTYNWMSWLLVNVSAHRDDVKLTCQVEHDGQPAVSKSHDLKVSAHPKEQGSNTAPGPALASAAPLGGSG
T3 sequence (Q9P1W8 29-360): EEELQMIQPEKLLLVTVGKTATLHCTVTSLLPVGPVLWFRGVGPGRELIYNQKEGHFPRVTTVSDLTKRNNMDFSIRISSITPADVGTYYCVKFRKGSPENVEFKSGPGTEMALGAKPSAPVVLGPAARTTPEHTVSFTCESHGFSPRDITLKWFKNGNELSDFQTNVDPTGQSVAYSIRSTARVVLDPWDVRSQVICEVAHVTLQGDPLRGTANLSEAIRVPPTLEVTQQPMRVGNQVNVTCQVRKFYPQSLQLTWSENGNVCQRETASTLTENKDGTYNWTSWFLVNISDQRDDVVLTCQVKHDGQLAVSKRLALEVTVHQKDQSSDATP

B1: Antibody A4 (antibody, human IgG1, kappa, L234A L235A, V domains shown)
VH: EVQLVESGGGLVQPGGSLRLSCAASGFTLSSYDMHWVRQAPGKGLEWVSAIGTAGDTYYTGSVKGRFTISRENAKNSLYLQMNSLRAADTAVYYCVRGGVWDDAFDIWGQGTMVTVSS
VL: DIQMTQSPSSLSASVGDRVTITCRASQGINNYAAWFQQKPGKAPKSLIYTASSLHSGVPSKFSGSGSGTDFTLTISSLQPEDFATYYCQQYVSYPYTFGQGTKLEIKR
In the case of B1, the binding result is “no binding” in assay [1]; “no binding” in [2]; “no binding (tested: 100 nM)” in [3]; “no binding (tested: 1000 nM)” in assay [4]; “no binding” in assay [6]; “no binding (tested: 1000 nM)” in assay [9]. Further, the Kd worked out at 67.2 nM in assay [5], 460 nM in assay [7], 508 nM in assay [8] and 374 nM in [10].

B2: Antibody C (antibody, human IgG1, kappa, L234A L235A, V domains shown)
VH: B1 VH with L29F, P41T, A50V, T53I, T60P, A87V, A88G, V96A, V100S
VL: B1 VL with V15I, R18K, G28D, A33L, H55Q
As to B2, the binding result in [1] and in [11] was “no binding” each time. For the same molecule, the Kd in assay [12] worked out at 14.3 nM; in [13] it was 0.627 nM; in assay [14] it was 0.0969 nM; in [15], 2.14 nM.

B3: Antibody D (antibody, human IgG1, kappa, L234A L235A, V domains shown)
VH: EVQLVESGGGLVQPGGSLRLSCAASGFTFSSFDMHWVRQPTGKGLEWVSTIGIAGDTYFPGSVKGRFTISRENAKNSLYLQMNSLRAGDTAVYYCARGGNWDDALDIWGQGTMVTVSS
VL: B1 VL with G28D, A33L, H55Q, V92N, S93T
For B3, the binding result was “no binding” in [1], “no binding” in [11] and “no binding (tested: 1000 nM)” in assay [12]. Further, the Kd was found to be 4.04 nM in assay [13], 4.05 nM in [14] and 16.5 nM in assay [15].

B4: Antibody A11 (antibody, human IgG4 S228P, kappa)
heavy: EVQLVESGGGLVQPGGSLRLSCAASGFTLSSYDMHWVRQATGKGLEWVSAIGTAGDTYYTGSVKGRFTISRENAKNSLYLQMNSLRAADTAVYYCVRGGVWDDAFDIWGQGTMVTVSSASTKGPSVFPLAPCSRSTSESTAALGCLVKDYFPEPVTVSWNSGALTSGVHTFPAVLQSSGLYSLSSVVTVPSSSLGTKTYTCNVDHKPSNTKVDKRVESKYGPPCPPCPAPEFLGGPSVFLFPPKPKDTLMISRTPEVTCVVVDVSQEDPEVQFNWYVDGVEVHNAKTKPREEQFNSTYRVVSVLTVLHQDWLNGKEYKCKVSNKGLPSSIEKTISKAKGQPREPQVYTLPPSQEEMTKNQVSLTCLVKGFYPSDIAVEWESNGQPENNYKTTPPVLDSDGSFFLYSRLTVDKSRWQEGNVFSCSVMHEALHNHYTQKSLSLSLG
light: DIQMTQSPSSLSASVGDRVTITCRASQDINNYLAWFQQKPGKAPKSLIYTASSLHSGVPSKFSGSGSGTDFTLTISSLQPEDFATYYCQQYVSYPYTFGQGTKLEIKRTVAAPSVFIFPPSDEQLKSGTASVVCLLNNFYPREAKVQWKVDNALQSGNSQESVTEQDSKDSTYSLSSTLTLSKADYEKHKVYACEVTHQGLSSPVTKSFNRGEC
Regarding B4, the binding result in [2] and in [6] was “no binding” in each case.
